Measured values from the domain aggregation screens of Martell et al. (2025).

Assay: soluble fraction after stress (log2 fold change); higher = more stays soluble; pooled small domains, quantitative proteomics
Conditions: stress: 75 degC
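Note: 20 min heating vs room temperature control held 20 min.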

| Sequence | soluble fraction (log2) |
| --- | --- |
| HMGLDPVFKKWVDDNPWYTENRVLRALTHDYAEELKQTNPQLVGVEFLDQVKKRVQADHPEFFQ | 0.0133 |
| HMGLGDLEVVDSIGKIRRDGQQMILAFGRHKGRDVQEVYNEDPRYINWLLSPKGIEDENGRGKVRDYLGIN | 0.0837 |
| HMGLKQADFEELASRIFTVLEEKSMTPAEIVRKLNLEPDRISIVIQYLLDEGKLNIKDGFINNSA | -0.29 |
| HMGLLGIYPNPVEGGSVRLLSDADLFGSRFELYDQSGKLVLNGFVTEGNFVSVKGISSGLYISVSYT | 0.245 |
| HMGLLGTDISAETMIGYFKKIDLGFDEETQEVIVPSWRQDLLRDADIAEEVARFYGYDNIPTTLPSGEST | 0.0485 |
| HMGLNLIGLKRSGFAPEEVKAMTRAYMYIFKSAEGNFESRLAKAHEKYKDDALIMEMVEFIDDALKG | -1.09 |
| HMGLQEADKQDRIARMKELISFLNEAAKAYYQEGREIVSNLEYDKAYDALLSLEKESGVVLSGSPSQNVG | 0.321 |
| HMGLRERLLNYIAYKGIDKATLERKSGLSNDAVNKMGDNTRVSTLDKISNAFPDINIAWLKTGVGEMILG | -0.306 |
| HMGLSAALKARLREVINEMAKSGAQPKLREWALAEGIGNFAKPETPEAAEAVIAKAQELLAEA | 0.543 |
| HMGLSASVIQMFADLGYTSEGRSTKEMITDYQIDHSIIKNSTEDGAGTYGPRTKASLSTVHAQYI | -0.0653 |
| HMGLSENALAMLKQQETVLIRLIDGRGNQGALASINLIVSRILNLDIVDRTPEDLLRVIASEGEQND | -3.81 |
| HMGMIRFSKEEQMLMMLYSPGSRLGLIAELESMKLQLNSRERKLRNLAESVLKKLEQITDEEFMQFDF | -2.19 |
| HMGMNSGQADFRGISLALSVDAEAEAQRLFTALADGGQVQMPLSKTFFSPAFGMVADRFGVGWMVVTN | 0.238 |
| HMGMSENIDKVAGGIPYKVEGNKAIINEPLDDATKERLMGKAKEHGYHAAPNQAGGITITLK | -0.0517 |
| HMGMSKQKQSSLVRIIMQEISDANEGRMKMSQIIDAALIKGISDSTVRSVISRLSTTGAIYEPQTGTYEW | -0.649 |
| HMGNEEEEAIREAEEAIERVLEYGEPQELNPQNGFIRRLQHQLAEKSHLSSESVGVEPYRRVRISK | 0.193 |
| HMGNFFDSAILALKNAIQENYGGNVSQAARSLGISVPTLHTWIKGDRKPSLEKLSPILDALNAKIVL | -1.06 |
| HMGNFGDLLKILLDEKELSMGELSKKSGIDKSTISRIANNKQKPNINHLEKMAIHLNINLEELLKASGYEF | -0.666 |
| HMGNFQNIFRKLRTSSNLTQNAIAEKLGISRSTIGMYETGAREPDFETLEKIADYFNVDTDFLLGRTNQTT | -0.315 |
| HMGNKDAQLVHLAKMNEIQIELMKTGRGYMVTDQNVYNLAKKMGENMGFKHPDLFLTDPAKV | -0.0897 |
| HMGNKDIEILFSEIVEMRNRIIHGFRITSKQGEQILATKTRKKDGNIQFEITKEYLLDFIKKNEELSDMLY | -2.46 |
| HMGNKWALLVVFILNENGSTRFNQLARQIPDISTKVLSNTLQILEADGLVKRTVFPEVPIRVEYELTATGK | -3.92 |
| HMGNLIIFYDEGIGSGPLMKAVNDSGVSLVYEYKNLHGIAIRPSAKTNIQDAIAYFQKVNGVLSVEQ | -2.92 |
| HMGNNKLVLSLAVALKNTPNFLKNYNYKISKDKKFIEILLSKQINEVSDIIINLKKNNINIVDLNIKKR | -1.85 |
| HMGNNTEITYSEFIRQAEAGNVQYVTVDGEKLLISATDGKSYYTINPRDDQMTDRLLNSGVEIRAEPQ | 0.021 |
| HMGNRQEQVRIIRDLWRQLADAGQPVPAKHLTLDLDALDATQLTKLEDQAHGWLAKLSAQADLADAA | -0.0412 |

| Sequence | soluble fraction (log2) |
| --- | --- |
| HMGNTMIVILKHEARQEQIDRLKQFLLGMGLRIDESKGENSTILGLVGDTTRVDADLISSLDAVEAVRRV | -0.891 |
| HMGNWENVEKETTEAIMAVKNGEAVWVDLAPANRMIRQMQHELVEQYGLLSQSYGKEPKRRIRIFQNP | -0.462 |
| HMGPDALSIGRRVRQVRTARGMTLDELAAAVSRAPSQLSMIETGKREPKLSLLQAIARALGTTIDALLT | -0.856 |
| HMGPDGLFAKFREPETGKDLLITQNVFVEQVLIKGVLTRTLTDAEANTYRAPFVNPEKRFPIYVWPNELP | 0.014 |
| HMGPEAFPVPYIVDIELDRAIYVIEQSGFIVGQKLEANDDNVPRGFVISQNPAAGTKLGPNSVVDLVISSG | -1.18 |
| HMGPEQLIGKTGIAASELAPRGEVKIEGQIWRAETVGDHVKQGEPVEVVSREGLILRVKPKHPQTRG | 0.0258 |
| HMGPEVQLAYSEFLAKVKVGEVNDVMVKGNEIHGHFSDGRTFSTYSPNDPDLVEKLNKNKVMIKAAPP | 0.00889 |
| HMGPFYFDQDGKAYSGLLNRNGEILYFADPFNAAVKNTTKTIDGKTYTFNQNGRATSIDGIPLEPP | 0.0904 |
| HMGPGDTTIPTTIIGMSLEEARNELSAAGLLVARIIPVDSNSRTGTVLKITPDAGSIIKAGSGVELEIAS | -0.101 |
| HMGPGFVGGSVLSGGNRGEGDPVANAQVFITDMDDNVVAFTKTDAEGNFDMTNLAYGDYKMYVDILNK | 0.126 |
| HMGPGSYVVNVKPYAYVSINGRDYGRTPVGPIRLDPGTYKVVFTHEHRPSFSRTIVVEAGRETFETFPYPG | -2.06 |
| HMGPLPIDSRYFNNLVPYTGITHVNSVIPEAERHIGLTVVVKTGSTYSEYWYRTGVTNSSLELKT | -1.41 |
| HMGPLYARVKAIVLARIMGGDWPPGTALPAEMELARALGVSQGTVRKALDALTAEQVVVRRQGSGTYVAE | -1.75 |
| HMGPNYYDILEIPTDASPSEITQAFRKKALEWHPDKNPNNLEEATSRFIEIVEAYRVLSSKDSKLQYDTG | -0.213 |
| HMGPSVGMTVGEMERDLIFRTLETVGDNRTKAADMLGISIRTLRNKLNEYREAGFEWPRKAG | -0.223 |
| HMGQAVTMLKAGRLLANAKGTGAPVRSLEPGMLLYPTGVKEGTMWEVEDEMGNKGWVNSTLMETA | -0.6 |
| HMGQAVTVPELKGLSFDEAIEKLDDAGLKYEVVDSNYVEDMKPGTVFETLPEAGSRVKPRRIVFLTINAF | -0.257 |
| HMGQDTTIVVRRGESLLGIAARLLPATDFYTTGELAEGIRTASGMENDRLIPGQTLRVPLNSG | -0.24 |
| HMGQGEISVPRLEGLSLRETSELLGLFGLRLEAAGSGIALSQNPPAGARVKAGDVIQVDFGEPGN | 0.0756 |
| HMGQHSAELKLHPQDLGQVTISMKVEDNQAQLQMVSGHGHVRAALEAALPQLRSQLADSGIQLTQSSIS | -0.198 |
| HMGQISDEETLKTVASRIIDANPDEARKYRSGKTGLLGFFVGQVMKATQGEANPKLASRIVKELLE | -0.15 |
| HMGQLIVTIPNFERRPAEQAIQKLEELGLVPEEKQIYHDDIPAGSVIYTDPSKDSQVNAGTKVYVYVSLG | -0.311 |
| HMGQMGHAVVAKTDLAVGTPLTRDLVAVREVPVEWLHSSAITPEQFERAAGAVLAQPARGGEPLVWSQLEE | 0.111 |
| HMGQPRPLTAEDFDFLSDDEIAEMRKALSNGEMLRLRELIAQIGEKRPFLAERLLVLAKQYNYEDLSRLLE | -0.472 |
| HMGQQPPVTEIYKNHDGNKDGLLEAGEVTGSRYARQFPRWDVNGDQKVSPQEVIAFRKRFGIAADGTLL | 0.0193 |
| HMGQQTVEPLSRRELEVLSLLAKGLSNQQIADRLVISVRTVKKHVENIHGKLGVQSRTQAVARARELGLV | -1.24 |

| Sequence | soluble fraction (log2) |
| --- | --- |
| HMGQTYTITINPTPADAKVIIDGVATNSVEAIDGRTLIWSVSKPGYLTKSGNYTVTGKNETLNIVLKEDPD | 0.163 |
| HMGQVLEGVFRRKANGKNAFIPDGGGEPILVAERNSAHAMDGDRVKATLLARRKHHVREAQVTEILKRSSK | -0.258 |
| HMGQVSDENQLNKVIDEVIKNYPIQVEQFKAGKEPILQFLKGMVMKATEGSADPAVAEKLLRKKL | 0.0979 |
| HMGQYLDAATVAAVYHAYHARNWTQATLAKELKVARPTLSNVLNGREAPSVELAARIRAFLGSPEP | -3.16 |
| HMGRAAEETETFRTQGELDARIKELQGQMRDAAANLEFERAAGLRDTLKRLRTRGLGLSASP | 0.0633 |
| HMGRENGTVKWFNTSKGFGFITRDDGGDVFVHFRSIQGEGHRALQEGQRVSYVVANRDKGLQAEDVTILN | -0.277 |
| HMGRKRLADYGLNDTEQKIVRKIADGLSNREIAQALYLSEGTVKNYITDILGKLELRDRTQIAIFYLREIG | -0.941 |
| HMGRLTTKIVLYDRIENIVPERRKELVADIEKRIGVKVEVLEIGHVDFVRDAAWLKVSYYLAPGE | -2.21 |
| HMGRNSTPKEPLKKFEVSPITEKEVRILDGRFGPYITDGATNVTVPKTITIEEITFERALDMLAEKAAKGP | 0.0521 |
| HMGRPQISDELRNAIIEVAKDNRDWGYIRIQGQLKYLGYRVSTATIGKVLKKAGLEPQPDRRRK | -1.92 |
| HMGRPWRIGDVVNVSRPTGDGGGFTKGLITRIYPTTVQVTWNPDLQHARPWTTMEKKQYLIFVYHDDE | -3.09 |
| HMGRQTITLPDFSGQDLEQVKARLTEWGLVPEEKSVFSDSVPLGSVVRTVPAEGDEVSVGDTVTVYKSLGR | 0.19 |
| HMGRRDLSWQPAAGGVSIDGLKAGEAWTLFGLNGRILKQGYAPEGQMSLAVNAGLFVLRGAESGVIRIAVA | -1.38 |
| HMGRSYTIKSGDTLWAIATRYYGNGAQYSKIYNANKGTIESVAKSRGFRSSQNGHWIFPGTSITI | -0.722 |
| HMGRTITVGIAEDADIKDIAKMLEEKGLISDYRLFVVQELLSAQHDKIKPGIYDLSTDMKAEEMLEILAG | -0.248 |
| HMGRTKEEIFNILKERIVTLQYEPGKILNEIELSEEFEVSRTPIRTVFQQLEAVKLVSIVPRYGVQVA | -1.15 |
| HMGRYATVPDVVGSTPEVARELIRSEGLRYVLSEETVYSDSDTGTVGRTDPESGTRMSADDEVVVYLS | 0.0649 |
| HMGRYVIQIASFSSKNNAIEAADKLGGFVVQSGRFYRVRTGPFATRGEADAALASARRVGYRDAFIDTS | -1.59 |
| HMGSAIAHAIASLPDRYRELLLLKYDTGYSEKEIAQLLGMTEANVKKTIQRAKAKLQTLLDEMEA | -1.43 |
| HMGSAKAQLYDLMNAHQVTRNQIQDIVAEKGYFPAGTPIENYPDDFVKGVLVGAWDQVHKAILDKEI | 0.326 |
| HMGSEISLNAFNIPKGSVSVTAGGTKLVENQDYTVDYTLGRIKILNEGILNSGVPIQVNFENNTLFN | -0.0124 |
| HMGSEYILTIIPTPADATVFINGVKKNSASGVNGQILSWEVTKEGYIPQSGTFTINGKNETIEVVLQPQT | 0.122 |
| HMGSFFSKATAPVRTTGGDGLYKHGSIWFNTSTGRLFVYIPDDRYTGLLDTHNGDIGYWVDVS | -2.53 |
| HMGSFGAMLKRNRKLAGLTQEQLAEKLDVSTVAVQNWESGKNQIRSEKLTKLSYLFNIPLETLIHEMLIS | -1.12 |
